According to patent US11957762B2, “Immune tolerant and non-immune tolerant elastin-like recombinant peptides and methods of use” (University of Utah Research Foundation, priority 2015, dated 2024):

B1: G(GAGVPG)70G(GVLPGVG)28G(ESIINFEKLT)2GG (protein)
chain: GGAGVPGGAGVPGGAGVPGGAGVPGGAGVPGGAGVPGGAGVPGGAGVPGGAGVPGGAGVPGGAGVPGGAGVPGGAGVPGGAGVPGGAGVPGGAGVPGGAGVPGGAGVPGGAGVPGGAGVPGGAGVPGGAGVPGGAGVPGGAGVPGGAGVPGGAGVPGGAGVPGGAGVPGGAGVPGGAGVPGGAGVPGGAGVPGGAGVPGGAGVPGGAGVPGGAGVPGGAGVPGGAGVPGGAGVPGGAGVPGGAGVPGGAGVPGGAGVPGGAGVPGGAGVPGGAGVPGGAGVPGGAGVPGGAGVPGGAGVPGGAGVPGGAGVPGGAGVPGGAGVPGGAGVPGGAGVPGGAGVPGGAGVPGGAGVPGGAGVPGGAGVPGGAGVPGGAGVPGGAGVPGGAGVPGGAGVPGGAGVPGGAGVPGGAGVPGGAGVPGGESIINFEKLTESIINFEKLTGG
B2: RED-NP: reductive-environment dependable NP, disulfide stabilized fusion iTEPB70-iTEPA28-(G8C)4-pOVA (SEQ ID NO: 61) (protein)
chain: GGAGVPGGAGVPGGAGVPGGAGVPGGAGVPGGAGVPGGAGVPGGAGVPGGAGVPGGAGVPGGAGVPGGAGVPGGAGVPGGAGVPGGAGVPGGAGVPGGAGVPGGAGVPGGAGVPGGAGVPGGAGVPGGAGVPGGAGVPGGAGVPGGAGVPGGAGVPGGAGVPGGAGVPGGAGVPGGAGVPGGAGVPGGAGVPGGAGVPGGAGVPGGAGVPGGAGVPGGAGVPGGAGVPGGAGVPGGAGVPGGAGVPGGAGVPGGAGVPGGAGVPGGAGVPGGAGVPGGAGVPGGAGVPGGAGVPGGAGVPGGAGVPGGAGVPGGAGVPGGAGVPGGAGVPGGAGVPGGAGVPGGAGVPGGAGVPGGAGVPGGAGVPGGAGVPGGAGVPGGAGVPGGAGVPGGAGVPGGAGVPGGAGVPGGAGVPGGAGVPGGGVLPGVGGVLPGVGGVLPGVGGVLPGVGGVLPGVGGVLPGVGGVLPGVGGVLPGVGGVLPGVGGVLPGVGGVLPGVGGVLPGVGGVLPGVGGVLPGVGGVLPGVGGVLPGVGGVLPGVGGVLPGVGGVLPGVGGVLPGVGGVLPGVGGVLPGVGGVLPGVGGVLPGVGGVLPGVGGVLPGVGGVLPGVGGVLPGVGGCGCGCGCGESIINFEKLTESIINFEKLTGG
B3: ST-NP: stable NP of the fusion iTEPB70-iTEPA56-pOVA (SEQ ID NO: 60) (protein)
chain: GGAGVPGGAGVPGGAGVPGGAGVPGGAGVPGGAGVPGGAGVPGGAGVPGGAGVPGGAGVPGGAGVPGGAGVPGGAGVPGGAGVPGGAGVPGGAGVPGGAGVPGGAGVPGGAGVPGGAGVPGGAGVPGGAGVPGGAGVPGGAGVPGGAGVPGGAGVPGGAGVPGGAGVPGGAGVPGGAGVPGGAGVPGGAGVPGGAGVPGGAGVPGGAGVPGGAGVPGGAGVPGGAGVPGGAGVPGGAGVPGGAGVPGGAGVPGGAGVPGGAGVPGGAGVPGGAGVPGGAGVPGGAGVPGGAGVPGGAGVPGGAGVPGGAGVPGGAGVPGGAGVPGGAGVPGGAGVPGGAGVPGGAGVPGGAGVPGGAGVPGGAGVPGGAGVPGGAGVPGGAGVPGGAGVPGGAGVPGGAGVPGGAGVPGGAGVPGGAGVPGGGVLPGVGGVLPGVGGVLPGVGGVLPGVGGVLPGVGGVLPGVGGVLPGVGGVLPGVGGVLPGVGGVLPGVGGVLPGVGGVLPGVGGVLPGVGGVLPGVGGVLPGVGGVLPGVGGVLPGVGGVLPGVGGVLPGVGGVLPGVGGVLPGVGGVLPGVGGVLPGVGGVLPGVGGVLPGVGGVLPGVGGVLPGVGGVLPGVGGGGGGGGGCGGGGGGGGCGGGGGGGGCGGGGGGGGCGESIINFEKLTESIINFEKLTGG

What was measured:
B3Z cells = assay: B3Z CD8+ T cell hybridoma activation assay; format: cell-based; settings: for activation of B3Z cells: DC2.4 cells pre-incubated with antigen
Procedure: B3Z CD8+ T cell hybridoma activation assay. B3Z cells (a gift from N. Shastri) are a CD8+ T-cell hybridoma engineered to secrete β-galactosidase when their T-cell receptors are engaged with an […]:H2K^b complex.^(33) To do this assay, 1×10^5 DC2.4 cells/well were set in 96-well plates. OVA, […] peptide (SEQ ID NO: 22), and iTEP-pOVA NP (SEQ ID NO: 56) at indicated concentrations were loaded into the cell culture for 16 hours and then washed away. 1×10^5 B3Z cells/well were added to the DC2.4 cell culture and co-cultured with DC2.4 cells for 24 hours. The cells were washed with PBS before 100 μL of lysis buffer (PBS with 100 mM 2-mercaptoethanol, 9 mM MgCl2, 0.125% NP-40) together with 0.15 mM chlorophenol red β-galactoside were added into the wells. After the plates were incubated at 37° C. for 4 hours, the reaction was stopped with 50 μL/well of 15 mM EDTA and 300 mM glycine. The OD at 570 nm was measured and the OD at 630 nm was used as reference. The OD was used as an indicator as activation status of B3Z cells.
Activation of B3Z hybridoma (CD8+T) cells. This assay was done with a protocol described previously (Cho et al., J Drug Target, 2015; p 1-12).

[1] = Hydrodynamic diameter by dynamic light scattering (DLS); format: physicochemical; design: Stability: key to the marks not given beside the values
Procedure: Characterization of the size of iTEPB-pOVA and iTEPB-iTEPA-pOVA fusions. The particle size distribution of the iTEP fusions was determined by dynamic light scattering (DLS) using a Zetasizer Nano-ZS instrument (Malvern Instruments, Malvern, UK) as previously described.^(29) The fusions were prepared at 5 μM and 25 μM in PBS and equilibrated at 37° C. for the measurement. The reported results represented the average particle size by number.
Dynamic light scattering (DLS) measurement. The measurement was carried out as previously described. iTEP, iTEP-MPBH-ABA-Sali conjugate, or PTX NP were measured at 25 μM in PBS at 37° C. using a Malvern Zetasizer Nano system (Malvern, Chester County, PA, USA).
Characterization of hydrodynamic diameters of iTEP-vaccine fusions. Hydrodynamic diameters of iTEP-vaccine fusions were determined by dynamic light scattering (DLS) using a Zetasizer Nano-ZS instrument (Malvern Instruments, Malvern, UK) as previously described (Zhao et al., Mol Pharm, 2014; 11(8):2703-12). The samples were resuspended at concentrations of 5, 25, 50, and 100 μM in PBS and sat at room temperature overnight before measurement. Some samples were kept in 5% C02 at 37° C. for 16 h before DLS measurement. Hydrodynamic diameter results of the sample of 5 μM concentration were reported because they were not affected by the used sample concentrations. Hydrodynamic diameters were presented using the size-by-number distribution approach. Z-average values and sizes-by-intensity data, however, were also reported.

C57BL/6 mice = assay: In vivo CTL response by ELISPOT IFN-γ assay; design: species or system mouse; settings: for SIINFEKL-specific CTL response in vivo: immunized C57BL/6 mice, ELISPOT
Text: in vivo CTL response by ELISPOT IFN-γ assay. C57BL/6 mice were immunized subcutaneously with each immunogen (2 nmol […] equivalents per mouse) together with incomplete Freunds Adjuvants (IFA; Sigma, USA) at their left flanks. The immunization was repeated at their right flanks 1 week later. At 10 days after the second immunization, mice were sacrificed, and the spleens were harvested. The spleens of the sacrificed mice were teased into single-cell suspensions and filtered through nylon mesh […]. Red blood cells were lysed by Ammonium-Chloride-Potassium (ACK) lysing buffer. The washed and resuspended single cells were counted using Contess™ Automated Cell Counter (Invitrogen, USA). Splenocytes (8×10^6/mL) were incubated in RPMI-1640 medium supplemented with 10% heat inactivated fetal calf serum, 2 mM glutamine, 100 units/mL penicillin and 100 μg/mL streptomycin (Invitrogen, USA), in a 14 mL polypropylene tissue culture tube for 48 hours, with or without […] peptide (SEQ ID NO: 22) (2.5 μg/mL). The cells were then washed and recounted. 2×10^5 live cells in 100 μL medium were then loaded into wells of 96-well Filtration plates (Millipore, USA) coated with […] of capture anti-mouse IFN-γ mAb (Clone: R4-6A2, Biolegend, USA). Triplicates were set up for each condition. Cells were discarded after 24 hours of culture and the wells were incubated with […] of detectionbiotinylated, anti-mouse IFN-γ mAb overnight (Clone: XMG1.2-Biotin, Biolegend, USA). After the unbound antibodies were washed away from the wells, the bound antibodies were detected using horseradish peroxidase (HRP Avidin, Biolegend, USA) together with 3-amino-9-ethyl-carbazole (AEC) substrate (Sigma, USA). The membranes on the bottom of the wells were peeled off, and color spots on the membrane were scanned. The spots were automatically counted using ImageJ software.
Animal immunization. C57BL/6 mice were immunized by the subcutaneous injection of 2 nmol iTEP NP vaccines and incomplete Freunds Adjuvants (IFA; Sigma, USA) at their left flanks. Immunization was repeated at their right flanks after 1 week. On day 10 after the second immunization, mice were sacrificed, and the spleens were harvested.

DC2.4 cells = assay: Presentation of the CTL epitope […] by DCs (flow cytometry); format: cell-based, murine; settings: 16 h incubation with DC2.4 cells
Procedure: Presentation of the CTL epitope, […], by DCs. Cells of a murine DC line (DC2.4, a gift from K. Rock)^(32) were plated at 2.5×10^5/500 μL/well in 24-well plates. 500 μL of OVA, […] peptide (SEQ ID NO: 22), or iTEPB-iTEPA-pOVA NP (SEQ ID NO: 56) (iTEP-pOVA NP hereafter) were dissolved in cell culture media and added to the wells containing DCs. The cells were further cultured for 16 hrs. at 37° C. with 5% CO2 before they were collected and washed with PBS. The MHC class I complex, H-2kb/[…] presented on DC surface was stained with a PE-tagged monoclonal antibody 25-D1.16 (Biolegend, 1:100 dilution) and quantified with flow cytometry (5×10^4 events collected per sample). The data are presented as MFI normalized to the MFI of untreated DC2.4 cells.
Presentation of […] epitope vaccine by DCs. The presentation was studied as previously described (Cho et al., J Drug Target, 2015; p 1-12). The concentration of iTEP-vaccine fusions (NPs) used in this experiment was 5 μM. The results of presentation were shown as mean fluorescence intensity (MFI) of 5000 treated, live cells in a given treatment, which were normalized to the MFI value of untreated DC2.4 cells.

[2] = after 16 h incubation in 5% CO2 at 37° C.
[3] = after the 16 h incubation at 37° C.
[4] = after 16 h incubation at 37° C.

Molecule	B3Z activity, fold more active than DC-treated B3Z cells (B3Z cells) [fold]	B3Z activity, fold more active than OVA/DC-treated B3Z cells (B3Z cells) [fold]	B3Z activity, fold more active than iTEPB-pOVA/DC-treated B3Z cells (B3Z cells) [fold]	mean diameter (DLS) ([1]; 5 μM in PBS, 37° C., by number) [nm]	mean diameter / size (DLS) ([1]; 25 μM in PBS, 37° C., by number) [nm]	hydrodynamic diameter by number distribution [1, 2] [nm]	Z-average [1, 3] [nm]	hydrodynamic diameter by number distribution ([1]; before incubation (0 h), 5 μM) [nm]	Z-average ([1]; before the incubation) [nm]	hydrodynamic diameter by intensity ([1]; before the incubation (0 h)) [nm]	SIINFEKL-restricted activated splenocytes (INF-γ ELISPOT) (C57BL/6 mice; subcutaneous immunization twice, 2 nmol SIINFEKL equivalents per mouse with IFA)	presentation of SIINFEKL by DCs (DC2.4 cells)	activation of B3Z cells (B3Z cells)	hydrodynamic diameter by intensity [1, 4] [nm]	SIINFEKL-specific CTL response in vivo (C57BL/6 mice)	Stability [1]
B1	4.38	3.81	2.9	81.2±14.2	71.9±20.8	8.39±1.20	422.90	71.94±20.81	101.00	111.90±35.02	105 spots per million seeded splenocytes	significantly more				
B2						53.05±12.38	76.89	61.94±12.71	87.59	75.55±15.32		significantly better than that of the ST-NP	failed to activate B3Z cells as effectively as the MS-NP but, again, fared better than the ST-NP	70.99±17.52	outperformed the MS-NP and induced stronger CTL responses	
B3						55.36±12.88	70.42	56.01±13.54	74.59	78.56±21.60		significantly weaker presentation than the MS-NP	much less robust in activating B3Z cells than the MS-NP	74.45±18.99	significantly weaker than the one elicited by the MS-NP	++
